Measurements reported in the nanobody polyreactivity screen of Harvey et al. (2022).

assay: yeast display, Sf9 membrane polyspecificity reagent, FACS + sequencing; frameworks hold sequencing errors
In short: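 A synthetic nanobody library was expressed on Saccharomyces cerevisiae BJ5465 by galactose induction for 36–48 hours. The library was stained for 1 hour at 4 °C with 10% biotinylated, detergent-solubilized Sf9 membrane reagent and enriched with streptavidin microbeads before FACS. Low and high (top ~1%) gates were set on anti-HA fluorescence for expression and streptavidin fluorescence for reagent binding, and each polyreactivity label reflects the gate of origin.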

| Sequence | polyreactivity (PSR sort gate) |
| --- | --- |
| QVQLVESGGGLVQAGGSLRLSCAASGSIFGRYAMGWSRQAPGKERELVAAISRGGSTNYADSVKGRFTISRDNAKNTVYLQMNSLKPEDTAVYYCNRKPYYVSSTRYDYWGQGTQVTVAS | high polyreactivity |
| QVQLVESGGGLVQAGGSLRLSCAASGSIFGRYAMGWYRQAPGKEREFVAAINRSTGSTYYADSVKGRFTISRDNAKNTVYLQMNSLKPEDTAVYYCAARSHSPGYNRRIRGYWGQGTQVTVSS | high polyreactivity |
| QVQLVESGGGLVQAGGSLRLSCAASGSIFGRYAMGWYRQAPGKERELVASINWNSGSTYYADSVKGRFTISRDNAKNTVYLQMNSLKPEDTAVYYCAAAALGYYGYWGQGTQVTVSS | low polyreactivity |
| QVQLVESGGGLVQAGGSLRLSCAASGSIFGRYAMGWYRQAPGTERELVAAISSGGITYYADSVKGRFTISRDNAKNTVYLQMNSLTPEDTAVYYCAVKYLSWYAKYDSWGQGTQVTVSS | high polyreactivity |
| QVQLVESGGGLVQAGGSLRLSCAASGSIFGRYGKGWYRQAPGKERELVAAITSGTRTNYADSVKGRFTISRDNAKITVYLQMNSLTPEDTAVYYSAKQSYRRLPNTPYNYWGQGTQVTVSS | low polyreactivity |
| QVQLVESGGGLVQAGGSLRLSCAASGSIFGRYGMGWYRQAPGKERELVAAITSGTRTNYADSVKGRFTISRDNAKNTVYLQLNSLKPEDTAVYYCNALRLRGNYEYGYWGLGTQVTVSS | low polyreactivity |
| QVQLVESGGGLVQAGGSLRLSCAASGSIFGRYTMGWYRQAPGKERELVAAINRSGGSTSYADSVKGRFTISRDNAKNTVYLQMNSLKPEDTAVYYCNRARSVPQFYGTYGFGYDYWGQGTQVTVSS | low polyreactivity |
| QVQLVESGGGLVQAGGSLRLSCAASGSIFGRYTMGWYRQAPGKERELVAAISWGGGSTYYADSVKGRFTISRDNAKNTVYLQMNSLKREDTAVYYCDADTYWAIDPIYDYWGQGTQVTVSS | low polyreactivity |
| QVQLVESGGGLVQAGGSLRLSCAASGSIFGRYVMGWYRQAPGKERELVAAISGSGTSTYYADSVKGRFTISRDNAKNTVFLQMNSLKPEDTAVYYCAARDIKSSHDYDYWGQGTQVTVSS | low polyreactivity |
| QVQLVESGGGLVQAGGSLRLSCAASGSIFGSNAMGWYRPAPGKERELVAAITNTGRTNYADSVKGRFTISRDNAKNTVYLQMNSLKPEDTAVYYCYTDGYEFTHFVGGWYQIIDYDYWGQGTQVTVSS | low polyreactivity |
| QVQLVESGGGLVQAGGSLRLSCAASGSIFGSNAMGWYRQAPGKERELVAAISVRDGSTSYADSVKGRFTISRDNAKNTVYLQMNSLKPEDPAVYYCTAKSLAERYYRPEMDYWGQGTQVTVSS | low polyreactivity |
| QVQLVESGGGLVQAGGSLRLSCAASGSIFGSNAMGWYRQAPGKERELVAAITNTGRTNYADSVKGRFTISRDYAKNTVYLQMNSLKPEDTAVYYCNADWRRSHAYGYWGQGTQVTVSS | low polyreactivity |
| QVQLVESGGGLVQAGGSLRLSCAASGSIFGSNAMGWYRQAPGKERELVAANSKSGGSTYYADSVKGRFTISRDNAKITVYLQMNSLKPEDTAVYYCNARWWVVTFYGRYEGDYWGQGTQVTVSS | low polyreactivity |
| QVQLVESGGGLVQAGGSLRLSCAASGSIFGSNAMGWYRRAPGKERELVAVINASGASTYYADSVKGRFTISRDNAKNTVYLQKNSLKPEDTAVYYCAKDPFPFPGGDYWGQGTQVTVSS | low polyreactivity |
| QVQLVESGGGLVQAGGSLRLSCAASGSIFGSYAMGWYRQAPGKERELVAAISKSGGNTYYADSVKGRFTISRDNAKNTVYLQMNSLKPEDTAVYYCAAYGFYRWRGYDYWGQGTQVTVSS | high polyreactivity |
| QVQLVESGGGLVQAGGSLRLSCAASGSIFGSYTMGWYRQAPGKERELVAAITTSGSSTYYADSVKGRFTISRDNAKNTVYLQMNSLKPEDTAVYYCSAEYYVTYPPYGWYDYWGHGTQVTVSS | high polyreactivity |
